Data on three molecules can be found in patent US20200276330A1 (NANOMAB TECHNOLOGY, published 2020).

B1: Nanobody No. 1 (VHH)
VHH: QVQLQESGGGSVQTGGSLRLSCAASTSIYSNNYMAWFSQAPGKGREGVAAVYIDDGRPYYADSVKGRFTISLDSAKNTVYLQMNRLKPEDTAMYYCAAAPGPLSHNYWYTSANYDYWGQGTQVTVSS
notes: Expressed in E. coli WK6 and purified on a nickel column; not shown: HA and His tags (implied by anti-HA detection and nickel column)
B2: Nanobody No. 3 (VHH)
VHH: B1 VHH with A23T, A40S, I53M, V79M, R85S, H105R
notes: as for B1
B3: Nanobody No. 2 (VHH)
VHH: QVQLQESGGGSVQAGGSLRLSCAASGYTYSSDGMGWFRQTPGKEREGVAAISPTGRRTEYADSVKGRFTISRDNNKNMLSLQMNSLKPEDTGMYYCAREGSWSFSLANSAVRSWGQGTQVTVSS
notes: as for B1

Changes are numbered by the printed parent chain.

T1 sequence (Q9NZQ7 19-290 limits assumed): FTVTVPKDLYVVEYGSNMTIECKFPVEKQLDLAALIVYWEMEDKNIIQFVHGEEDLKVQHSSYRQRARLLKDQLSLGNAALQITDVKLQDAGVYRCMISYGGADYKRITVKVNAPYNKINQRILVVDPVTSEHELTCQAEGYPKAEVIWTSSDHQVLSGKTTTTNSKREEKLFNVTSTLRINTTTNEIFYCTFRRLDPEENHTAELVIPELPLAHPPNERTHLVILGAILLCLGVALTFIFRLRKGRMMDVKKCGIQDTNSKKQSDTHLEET
T2 sequence (Q9NZQ7 19-238 limits assumed): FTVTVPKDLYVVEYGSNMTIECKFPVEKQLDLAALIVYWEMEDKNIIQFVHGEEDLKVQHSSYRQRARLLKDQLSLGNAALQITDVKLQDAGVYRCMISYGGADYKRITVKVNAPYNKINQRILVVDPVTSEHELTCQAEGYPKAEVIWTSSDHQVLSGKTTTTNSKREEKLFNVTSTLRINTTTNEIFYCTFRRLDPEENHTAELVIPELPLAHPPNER

The first assay addresses T1, PD-L1 on HCC827 cells (high PD-L1 expression) and A549 cells (low PD-L1 expression) (UniProt Q9NZQ7 19-290, limits assumed).
T1 construct: whole, on cells; HCC827 and A549 are known human lung cancer lines
Description: flow cytometry on A549 cells (low PD-L1 expression), anti-HA Alexa Fluor 488. In general terms: A flow cytometer gives signals particle by particle.
Consider B1, for which the “positive rate, A549” value is 11.5%.
On the same count and under the same terms, the result for B2 reads 13.5%; that for B3, 32.6%.

The target in another assay is T1, PD-L1 on HCC827 cells (high PD-L1 …). Description: flow cytometry on HCC827 cells (high PD-L1 expression), anti-HA Alexa Fluor 488.
As for B1, the “positive rate, HCC827” value was 88.1%.
Consider B2, for which the “positive rate, HCC827” value was 66.5%.
On the same count and under the same terms, as for B3, the figure is 92.8%.

The next assay addresses T2, PD-L1 (coated on the ELISA plate) (UniProt Q9NZQ7 19-238, limits assumed).
T2 construct: also called B7-H1; CD274
Description: ELISA with gradient dilution of nanobody on coated PD-L1. The method, then:
(1) The PD-L1 was coated on the plate, and IgG and NaHCO₃ (100 mM, pH8.2) were used as blank controls. All were incubated overnight at 4° C.
(3) The purified nanobodies were diluted, and reacted with coated PD-L1, IgG and NaHCO₃ at room temperature for 1 hour.
A general note: An ELISA detects its analyte on a solid surface through an enzyme-linked reagent.
As a reminder, the Kd is the free concentration of one partner at which half of the binding sites on the other are occupied at equilibrium, for simple one-to-one binding. For the molecule B1, the dissociation constant (Kd) came to 7.96 nM.
As for B2, the Kd was found to be 4.46 nM.
Same read-out and setting: as for B3, the figure is 1.62 nM.

The next assay deals with T3, human PD-L1 full-length protein on transiently transfected HEK293F cells (human, UniProt Q9NZQ7 19-290).
T3 construct: whole, on cells
T3 sequence (Q9NZQ7 19-290): as the sequence (Q9NZQ7 19-290 limits assumed) above
Description: flow cytometry competition: 10 ug nanobody + 5 ug hPD-1-Fc-Biotin on HEK293F cells expressing human PD-L1, SA-PE. The method, then: (1) 1×10⁶ HEK293F cells transiently transfected to express human PD-L1 full-length protein were collected and resuspended in 0.5% BSA-PBS buffer. And 10 μg of anti-PD-L1 nanobodies were added, and a positive control, a negative control and blank group (PBS) were set up. All samples were incubated with 5 μg of hPD-1-Fc-Biotin for 20 minutes at 4° C.
(2) The cells were washed twice by PBS and incubated with SA-PE from eBioscience for 20 minutes at 4° C. Cells were washed again with PBS twice and were detected by flow cytometry.
Consider B1, for which the “PD-1/PD-L1 Inhibitory effect” value was found to be 19.3%.
As to B2, the “PD-1/PD-L1 Inhibitory effect” value is 19.2%.
Same read-out and setting: the result for B3 reads 19.3%.
